Laboratory results reported in patent US20100015637A1 (AbbVie / Abbott, published 2010).
Each block holds one binder with its values, some of them ahead of it.

Key:
[1] = molecular target: recombinant human PlGF-1 (comprising amino acids 1-131) expressed in E. coli (R&D Systems) (human) (UniProt P49763); assay: EIA, supernatant antibody captured on anti-mouse IgG Fc, biotin labeled human PlGF-1 at 1500 pg/mL
[2] = molecular target: recombinant human PlGF-1 (comprising amino acids 1-131) expressed in E. coli (R&D Systems) (human) (UniProt P49763); assay: EIA of clone supernatants, antibody captured on anti-mouse IgG Fc, biotin labeled human PlGF-1
[3] = molecular target: recombinant human PlGF-1 (comprising amino acids 1-131) expressed in E. coli (R&D Systems) (human) (UniProt P49763); assay: EIA of 24 well cultures, antibody captured on anti-mouse IgG Fc, biotin labeled human PlGF-1
[4] = molecular target: T1, human PlGF-1 (as used in Example 13; source not specified) (human) (UniProt P49763); assay: … PlGF-1 assay; added sFlt-1 93 pM; 6.8 pM PlGF-1 without sFlt-1
T1 sequence: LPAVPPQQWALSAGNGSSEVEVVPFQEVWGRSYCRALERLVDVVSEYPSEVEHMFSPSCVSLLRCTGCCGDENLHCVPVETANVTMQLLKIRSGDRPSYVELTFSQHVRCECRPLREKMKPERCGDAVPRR

[5] = molecular target: T1, human PlGF-1 (as used in Example 13; source not specified) (human); assay: … PlGF-1 assay; added sFlt-1 186 pM; 3.6 pM PlGF-1 without sFlt-1
[6] = molecular target: T1, human PlGF-1 (as used in Example 13; source not specified) (human); assay: … PlGF-1 assay; added sFlt-1 788 pM; 40.5 pM PlGF-1 without sFlt-1
[7] = molecular target: T1, human PlGF-1 (as used in Example 13; source not specified) (human); assay: … PlGF-1 assay; added sFlt-1 186 pM; 13.3 pM PlGF-1 without sFlt-1
[8] = molecular target: T1, human PlGF-1 (as used in Example 13; source not specified) (human); assay: … PlGF-1 assay; added sFlt-1 389 pM; 27.1 pM PlGF-1 without sFlt-1
[9] = molecular target: T1, human PlGF-1 (as used in Example 13; source not specified) (human); assay: … PlGF-1 assay; added sFlt-1 93 pM; 13.3 pM PlGF-1 without sFlt-1
[10] = molecular target: T1, human PlGF-1 (as used in Example 13; source not specified) (human); assay: … PlGF-1 assay; added sFlt-1 1,181 pM; 13.3 pM PlGF-1 without sFlt-1
[11] = molecular target: T1, human PlGF-1 (as used in Example 13; source not specified) (human); assay: … PlGF-1 assay after 16 h incubation of PlGF-1 with sFlt-1 (data not shown)
[12] = molecular target: T1, human PlGF-1 (as used in Example 13; source not specified) (human); assay: … PlGF-1 assay; added sFlt-1 389 pM; 3.6 pM PlGF-1 without sFlt-1
[13] = molecular target: T1, human PlGF-1 (as used in Example 13; source not specified) (human); assay: … PlGF-1 assay; added sFlt-1 186 pM; 6.8 pM PlGF-1 without sFlt-1
[14] = molecular target: T1, human PlGF-1 (as used in Example 13; source not specified) (human); assay: … PlGF-1 assay; added sFlt-1 1,181 pM; 40.5 pM PlGF-1 without sFlt-1
[15] = molecular target: T1, human PlGF-1 (as used in Example 13; source not specified) (human); assay: … PlGF-1 assay; added sFlt-1 788 pM; 13.3 pM PlGF-1 without sFlt-1
[16] = molecular target: T1, human PlGF-1 (as used in Example 13; source not specified) (human); assay: … PlGF-1 assay; added sFlt-1 93 pM; 40.5 pM PlGF-1 without sFlt-1
[17] = molecular target: T1, human PlGF-1 (as used in Example 13; source not specified) (human); assay: … PlGF-1 assay after 16 h incubation of PlGF-1 with sFlt-1 up to 12 nM (data not shown)
[18] = molecular target: T1, human PlGF-1 (as used in Example 13; source not specified) (human); assay: … PlGF-1 assay; added sFlt-1 186 pM; 40.5 pM PlGF-1 without sFlt-1
[19] = molecular target: T1, human PlGF-1 (as used in Example 13; source not specified) (human); assay: … PlGF-1 assay; added sFlt-1 93 pM; 3.6 pM PlGF-1 without sFlt-1
[20] = molecular target: T1, human PlGF-1 (as used in Example 13; source not specified) (human); assay: … PlGF-1 assay; added sFlt-1 186 pM; 27.1 pM PlGF-1 without sFlt-1
[21] = molecular target: T1, human PlGF-1 (as used in Example 13; source not specified) (human); assay: … PlGF-1 assay; added sFlt-1 389 pM; 40.5 pM PlGF-1 without sFlt-1
[22] = molecular target: T1, human PlGF-1 (as used in Example 13; source not specified) (human); assay: … PlGF-1 assay; added sFlt-1 788 pM; 6.8 pM PlGF-1 without sFlt-1
[23] = molecular target: T1, human PlGF-1 (as used in Example 13; source not specified) (human); assay: … PlGF-1 assay; added sFlt-1 788 pM; 27.1 pM PlGF-1 without sFlt-1
[24] = molecular target: T1, human PlGF-1 (as used in Example 13; source not specified) (human); assay: … PlGF-1 assay; added sFlt-1 389 pM; 13.3 pM PlGF-1 without sFlt-1
[25] = molecular target: T1, human PlGF-1 (as used in Example 13; source not specified) (human); assay: … PlGF-1 assay; added sFlt-1 1,181 pM; 6.8 pM PlGF-1 without sFlt-1
[26] = molecular target: T1, human PlGF-1 (as used in Example 13; source not specified) (human); assay: … PlGF-1 assay; added sFlt-1 389 pM; 6.8 pM PlGF-1 without sFlt-1
[27] = molecular target: T1, human PlGF-1 (as used in Example 13; source not specified) (human); assay: … PlGF-1 assay; added sFlt-1 788 pM; 3.6 pM PlGF-1 without sFlt-1
[28] = molecular target: T1, human PlGF-1 (as used in Example 13; source not specified) (human); assay: … PlGF-1 assay; added sFlt-1 93 pM; 27.1 pM PlGF-1 without sFlt-1
[29] = molecular target: T1, human PlGF-1 (as used in Example 13; source not specified) (human); assay: … PlGF-1 assay; added sFlt-1 1,181 pM; 3.6 pM PlGF-1 without sFlt-1
[30] = molecular target: T1, human PlGF-1 (as used in Example 13; source not specified) (human); assay: … PlGF-1 assay; added sFlt-1 1,181 pM; 27.1 pM PlGF-1 without sFlt-1

EIA signal relative to background (fold over background) [1]: > 3
EIA signal relative to background (fold over background) [2]: > 3
EIA signal relative to background (fold over background) [3]: > 3
B1: anti-human PlGF-1 monoclonal antibody from clone 2-826-127 (antibody, V domains shown)
VH: QVQLKQSGPGLVQPSQSLSITCTVSGFSLTTYGIHWVRQSPGKGLEWLGVMWSGGDTDYDAAFISRLSISKDNSKSQVFFKMNSLQANDTGIYYCARYRFYGMDYWGQGTSVTVSS
VL: AIQMTQSSSSFSVSLGDRVTITCKASEDIYNRFAWYQQKPGNAPRLLISGAASLEAGVPSRFSGSGSGQDYTLSITSLQTEDVATYYCQQYWSTPWTFGGGTKLEIKR

Measured Human PlGF-1 [4]: 3.1 pM
percentage of inhibition [4]: -55%
Measured Human PlGF-1 [5]: 1.2 pM
percent change in measured PlGF-1 [5]: -65%
Measured Human PlGF-1 [6]: 9.2 pM
percent change in measured PlGF-1 vs. without sFlt-1 [6]: -77%
Measured Human PlGF-1 [7]: 4.9 pM
percent change in measured PlGF-1 [7]: -63%
Measured Human PlGF-1 [8]: 7.5 pM
percent change in measured PlGF-1 vs. no sFlt-1 [8]: -72%
Measured Human PlGF-1 [9]: 6.7 pM
percent change in measured PlGF-1 [9]: -49%
Measured Human PlGF-1 [10]: 3 pM
percent change in measured PlGF-1 [10]: -77%
molar excess of sFlt-1 for 90% maximum inhibition [11]: 40 fold
Measured Human PlGF-1 [12]: 1.2 pM
percent change in measured PlGF-1 versus without sFlt-1 [12]: -67%
Measured Human PlGF-1 [13]: 2.4 pM
percent change in measured PlGF-1 vs. no sFlt-1 [13]: -65%
Measured Human PlGF-1 [14]: 7.8 pM
percent change in measured PlGF-1 versus no sFlt-1 [14]: -81%
Measured Human PlGF-1 [15]: 3.3 pM
percent change in measured PlGF-1 vs. no sFlt-1 [15]: -76%
Measured Human PlGF-1 [16]: 25.9 pM
percent change in measured PlGF-1 [16]: -36%
% inhibition of the human PlGF-1 assay [17]: 90%
Measured Human PlGF-1 [18]: 17.8 pM
percent change in measured PlGF-1 [18]: -56%
Measured Human PlGF-1 [19]: 1.5 pM
percent change in measured PlGF-1 vs. no sFlt-1 [19]: -58%
Measured Human PlGF-1 [20]: 10.6 pM
percent change in measured PlGF-1 vs. no sFlt-1 [20]: -61%
Measured Human PlGF-1 [21]: 12.2 pM
percent change in measured PlGF-1 vs. no sFlt-1 [21]: -70%
Measured Human PlGF-1 [22]: 1.9 pM
percent change in measured PlGF-1 [22]: -72%
Measured Human PlGF-1 [23]: 6.1 pM
percent change in measured PlGF-1 vs. without sFlt-1 [23]: -78%
Measured Human PlGF-1 [24]: 3.8 pM
percent change in measured PlGF-1 vs. no sFlt-1 [24]: -72%
Measured Human PlGF-1 [25]: 1.9 pM
percent change in measured PlGF-1 vs. without sFlt-1 [25]: -72%
Measured Human PlGF-1 [26]: 2 pM
percent change in measured PlGF-1 [26]: -70%
Measured Human PlGF-1 [27]: 1.2 pM
percent change in measured PlGF-1 versus no sFlt-1 [27]: -66%
Measured Human PlGF-1 [28]: 15.6 pM
percent change in measured PlGF-1 versus no sFlt-1 [28]: -42%
Measured Human PlGF-1 [29]: 1.3 pM
percent change in measured PlGF-1 versus without sFlt-1 [29]: -64%
Measured Human PlGF-1 [30]: 5.4 pM
percent change in measured PlGF-1 [30]: -80%
B2: sFlt-1 (as used in Example 13; preparation not specified) (receptor, not shown: a dimerising Fc or GST; small tags and cut ends)
chain: SKLKDPELSLKGTQHIMQAGQTLHLQCRGEAAHKWSLPEMVSKESERLSITKSACGRNGKQFCSTLTLNTAQANHTGFYSCKYLAVPTSKKKETESAIYIFISDTGRPFVEMYSEIPEIIHMTEGRELVIPCRVTSPNITVTLKKFPLDTLIPDGKRIIWDSRKGFIISNATYKEIGLLTCEATVNGHLYKTNYLTHRQTNTIIDVQISTPRPVKLLRGHTLVLNCTATTPLNTRVQMTWSYPDEKNKRASVRRRIDQSNSHANIFYSVLTIDKMQNKDKGLYTCRVRSGPSFKSVNTSVHI
modifications: glycosylated; the chimera is dimerised through its Fc, if that preparation was the one used

EIA signal relative to background (fold over background) [1]: 3
EIA signal relative to background (fold over background) [2]: > 3
EIA signal relative to background (fold over background) [3]: > 3
B3: anti-human PlGF-1 monoclonal antibody from clone 1-255-189 (antibody, V domains shown)
VH: QVHLQQSGAELMKPGASVKISCKATGYTFSSYWIEWVKQRPGHGLEWIGEILPGSVSNNFNEKFKDKATLTADPSSNTAYIQVSSLTSEDSAVYYCARSTGFYYGGNYFDHWGQGTTLAVSS
VL: DVVMTQTPLSLPVSPGDQASISCRSSQSLVHSNGHTYLHWYLQKPGQSPKLLIYKVSNRFSGVPDRVSGSGSGTDFTLKISRVEAEDLGVYFCSQSTHVPPTFGGGTKLEIKR
